# Molecular target: N-terminally GST-tagged M. jannaschii SR(aa93-408) (M. jannaschii) (UniProt Q57739)
# UniProt Q57739, sequence (Q57739 93-408): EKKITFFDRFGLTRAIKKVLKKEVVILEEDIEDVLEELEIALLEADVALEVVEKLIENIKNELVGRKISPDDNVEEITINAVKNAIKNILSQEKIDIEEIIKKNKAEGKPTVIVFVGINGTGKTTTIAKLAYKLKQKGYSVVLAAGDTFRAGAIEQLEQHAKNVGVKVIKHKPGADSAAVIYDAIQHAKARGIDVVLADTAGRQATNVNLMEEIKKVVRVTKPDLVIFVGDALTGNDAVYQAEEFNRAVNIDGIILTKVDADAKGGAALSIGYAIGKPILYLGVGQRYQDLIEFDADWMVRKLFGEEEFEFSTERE
substance,measurement,value
"M. jannaschii SRP core complex containing fl-SRP54-ss, SRP19 and SRP RNA (from UniProt Q57565 1-451; Q58440 1-87)","GTPase rate of the SRP-SR complex in multiple turnover reactions (0.5 uM SRP, SR 0-25 uM, 25 °C), against SRP complexes containing SRP54-ss as the text prints (fl-SRP54 by the legend of Fig. 1b)",20 fold

# — article PMC4468861
